The assay deals with anti-VCAM-1•tTF coaguligand (anti-VCAM-1 antibody covalently linked through SMPT to truncated tissue factor) (human) (UniProt P13726). As to the kind of experiment: 125I-labeled 10H10 on anti-VCAM-1•tTF-treated IL-1α-activated bEnd.3 cells.
Sequence of UniProt P13726 (P13726 other isoform, or with tags, fused parts or gaps): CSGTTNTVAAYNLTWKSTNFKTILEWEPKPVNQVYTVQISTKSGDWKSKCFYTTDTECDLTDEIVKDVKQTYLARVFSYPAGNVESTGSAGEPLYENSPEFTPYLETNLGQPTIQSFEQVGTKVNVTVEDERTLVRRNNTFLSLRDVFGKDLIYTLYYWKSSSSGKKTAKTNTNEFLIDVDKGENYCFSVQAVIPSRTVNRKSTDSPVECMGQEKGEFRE

Consider “10H10, mouse monoclonal antibody against human tissue factor”, for which the amount of antibody bound to the cells at saturation was determined as 8.7 fmol and the molecules of antibody bound per cell at saturation (molecules per cell) is 540000.

(Values after patent US7067109.)
